Data set [1] deals with the molecule itself. Briefly: cross-linking.
For data set [2], the target named is T1, FLAG-tagged Npl4 (S. cerevisiae, UniProt P33755 1-580).
T1 sequence: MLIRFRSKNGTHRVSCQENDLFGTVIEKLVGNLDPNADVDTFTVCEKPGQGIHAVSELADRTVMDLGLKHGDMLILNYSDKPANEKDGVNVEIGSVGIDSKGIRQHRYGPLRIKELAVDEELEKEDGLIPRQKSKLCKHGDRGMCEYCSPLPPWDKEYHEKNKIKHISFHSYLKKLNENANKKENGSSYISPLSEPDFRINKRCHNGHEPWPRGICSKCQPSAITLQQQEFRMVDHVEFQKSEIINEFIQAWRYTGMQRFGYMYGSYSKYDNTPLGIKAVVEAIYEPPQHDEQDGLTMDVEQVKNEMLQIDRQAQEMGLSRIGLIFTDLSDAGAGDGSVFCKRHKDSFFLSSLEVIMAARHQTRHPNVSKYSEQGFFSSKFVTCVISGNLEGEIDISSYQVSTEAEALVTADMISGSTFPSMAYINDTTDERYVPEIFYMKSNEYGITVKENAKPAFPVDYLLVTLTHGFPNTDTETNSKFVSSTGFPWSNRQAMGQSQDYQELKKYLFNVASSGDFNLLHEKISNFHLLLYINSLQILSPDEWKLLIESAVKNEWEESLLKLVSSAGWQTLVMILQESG
Briefly: pull-down.

B1: Cdc48^2Cys (Cdc48 containing S286C and R333C) (enzyme, S. cerevisiae)
chain: MGEEHKPLLDASGVDPREEDKTATAILRRKKKDNMLLVDDAINDDNSVIAINSNTMDKLELFRGDTVLVKGKKRKDTVLIVLIDDELEDGACRINRVVRNNLRIRLGDLVTIHPCPDIKYATRISVLPIADTIEGITGNLFDVFLKPYFVEAYRPVRKGDHFVVRGGMRQVEFKVVDVEPEEYAVVAQDTIIHWEGEPINREDEENNMNEVGYDDIGGCRKQMAQIREMVELPLRHPQLFKAIGIKPPRGVLMYGPPGTGKTLMARAVANETGAFFFLINGPEVMCKMAGESESNLRKAFEEAEKNAPAIIFIDEIDSIAPKRDKTNGEVERCVVSQLLTLMDGMKARSNVVVIAATNRPNSIDPALRRFGRFDREVDIGIPDATGRLEVLRIHTKNMKLADDVDLEALAAETHGYVGADIASLCSEAAMQQIREKMDLIDLDEDEIDAEVLDSLGVTMDNFRFALGNSNPSALRETVVESVNVTWDDVGGLDEIKEELKETVEYPVLHPDQYTKFGLSPSKGVLFYGPPGTGKTLLAKAVATEVSANFISVKGPELLSMWYGESESNIRDIFDKARAAAPTVVFLDELDSIAKARGGSLGDAGGASDRVVNQLLTEMDGMNAKKNVFVIGATNRPDQIDPAILRPGRLDQLIYVPLPDENARLSILNAQLRKTPLEPGLELTAIAKATQGFSGADLLYIVQRAAKYAIKDSIEAHRQHEAEKEVKVEGEDVEMTDEGAKAEQEPEVDPVPYITKEHFAEAMKTAKRSVSDAELRRYEAYSQQMKASRGQFSNFNFNDAPLGTTATDNANSNNSAPSGAGAAFGSNAEEDDDLYS
modifications: disulfide bridges between neighbouring protomers after oxidation
For B1, in data set [1], the “stoichiometry N” value stood at 6.

B2: Ufd1 (natural protein, S. cerevisiae, UniProt P53044 1-361, looked up)
chain: MFSGFSSFGGGNGFVNMPQTFEEFFRCYPIAMMNDRIRKDDANFGGKIFLPPSALSKLSMLNIRYPMLFKLTANETGRVTHGGVLEFIAEEGRVYLPQWMMETLGIQPGSLLQISSTDVPLGQFVKLEPQSVDFLDISDPKAVLENVLRNFSTLTVDDVIEISYNGKTFKIKILEVKPESSSKSICVIETDLVTDFAPPVGYVEPDYKALKAQQDKEKKNSFGKGQVLDPSVLGQGSMSTRIDYAGIANSSRNKLSKFVGQGQNISGKAPKAEPKQDIKDMKITFDGEPAKLDLPEGQLFFGFPMVLPKEDEESAAGSKSSEQNFQGQGISLRKSNKRKTKSDHDSSKSKAPKSPEVIEID
For B2, the binding result in data set [2] is recorded as “binds”.

For the origin of these results see paper PMC8818041 (Molecular cell, 2021).
